Data reported in CN111995676A (UNIV WEIFANG MEDICAL, dated 2020).
Positions count from the first letter of the chain named.

B1: 噬菌体展示的A4抗体 (单克隆抗体A4) (antibody, V domains shown)
VH: EVQLLESGGGLVQPGGSLRLSCAASGFTFSSYAMSWVRQAPGKGLEWVSYITNNGANTSYADSVKGRFTISRDNSKNTLYLQMNSLRAEDTAVYYCAKSYATFDYWGQGTLVTVSS
VL: DIQMTQSPSSLSASVGDRVTITCRASQSISSYLNWYQQKPGKAPKLLIYNASGLQSGVPSRFSGSGSGTDFTLTISSLQPEDFATYYCQQAAYYPTTFGQGTKVEIKR
notes: also called 噬菌体展示A4抗体; A4噬菌体
B2: 噬菌体展示的A2抗体 (单克隆抗体A2) (antibody, V domains shown)
VH: B1 VH with Y50G, T52D, N53A, N54S, A56Y, N57Y, S99D, Y100A, A101Y
VL: B1 VL with N50S, G53Y, A92S, Y93A, Y94D, T96D
B3: 噬菌体展示的C3抗体 (单克隆抗体C3) (antibody, V domains shown)
VH: EVQLLESGGGLVQPGGSLRLSCAASGFTFSSYAMSWVRQAPGKGLEWVSSIASSGYYTDYADSVKGRFTISRDNSKNTLYLQMNSLRAEDTAVYYCAKDADSFDYWGQGTLVTVSS
VL: B1 VL with N50A, G53Y, A92Y, Y93S, Y94A, T96S

Target: T1, 牛血清白蛋白BSA (bovine, UniProt P02769 25-607)
T1 construct: also called BSA蛋白; 牛血清蛋白
Test: phage ELISA, coated protein

T1 sequence (P02769 25-607 limits assumed): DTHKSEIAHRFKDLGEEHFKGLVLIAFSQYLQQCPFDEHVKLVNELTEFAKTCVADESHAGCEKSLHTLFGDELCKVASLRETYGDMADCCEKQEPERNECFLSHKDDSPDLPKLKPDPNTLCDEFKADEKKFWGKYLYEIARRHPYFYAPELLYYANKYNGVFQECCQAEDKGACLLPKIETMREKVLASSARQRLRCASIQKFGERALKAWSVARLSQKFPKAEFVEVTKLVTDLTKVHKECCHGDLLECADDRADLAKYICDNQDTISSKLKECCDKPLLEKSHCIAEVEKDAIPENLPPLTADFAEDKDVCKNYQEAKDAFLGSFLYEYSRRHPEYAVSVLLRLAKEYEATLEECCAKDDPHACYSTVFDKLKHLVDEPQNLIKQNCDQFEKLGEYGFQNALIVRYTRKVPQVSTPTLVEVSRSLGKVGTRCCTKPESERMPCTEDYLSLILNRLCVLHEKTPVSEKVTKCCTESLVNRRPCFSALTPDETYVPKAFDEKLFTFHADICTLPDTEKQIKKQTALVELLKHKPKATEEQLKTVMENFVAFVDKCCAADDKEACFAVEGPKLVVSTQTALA

Q: Does B1 bind?
A: no binding (tested: 1μg/mL coated)

Q: Does B2 bind?
A: no binding (tested: 1μg/mL coated)

Q: Does B3 bind?
A: no binding (tested: 1μg/mL coated)
